PMC5225433

Biological target: EMILIN1 gC1q domain, wild type (recombinant)
Assay: SDS-PAGE without boiling; purified gC1q (WT or mutant), incubated or not with NE at 37 °C, Laemmli buffer added, loaded on 4-20% gels without boiling to keep the trimer, Coomassie staining; trimer to monomers

- stoichiometry N: 3
Substance: EMILIN1 gC1q domain, wild type (recombinant) (domain or fragment)
